Test results reported in patent US20140274782A1, “AFFINITY REAGENTS AND METHODS FOR DETECTION, PURIFICATION, AND PROTEOMIC ANALYSIS OF METHYLATED PROTEINS” (The Board of Trustees of the Leland Stanford Junior …, priority 2013, published 2014).

B1: ILKAP (protein, UniProt Q9H0C8 1-392, looked up)
Integrin-linked …: MDLFGDLPEPERSPRPAAGKEAQKGPLLFDDLPPASSTDSGSGGPLLFDDLPPASSGDSGSLATSISQMVKTEGKGAKRKTSEEEKNGSEELVEKKVCKASSVIFGLKGYVAERKGEREEMQDAHVILNDITEECRPPSSLITRVSYFAVFDGHGGIRASKFAAQNLHQNLIRKFPKGDVISVEKTVKRCLLDTFKHTDEEFLKQASSQKPAWKDGSTATCVLAVDNILYIANLGDSRAILCRYNEESQKHAALSLSKEHNPTQYEERMRIQKAGGNVRDGRVLGVLEVSRSIGDGQYKRCGVTSVPDIRRCQLTPNDRFILLACDGLFKVFTPEEAVNFILSCLEDEKIQTREGKSAADARYEAACNRLANKAVQRGSADNVTVMVVRIGH
B2: PABPN1 (protein, UniProt Q86U42 2-306, looked up)
Polyadenylate-binding protein …: AAAAAAAAAAGAAGGRGSGPGRRRHLVPGAGGEAGEGAPGGAGDYGNGLESEELEPEELLLEPEPEPEPEEEPPRPRAPPGAPGPGPGSGAPGSQEEEEEPGLVEGDPGDGAIEDPELEAIKARVREMEEEAEKLKELQNEVEKQMNMSPPPGNAGPVIMSIEEKMEADARSIYVGNVDYGATAEELEAHFHGCGSVNRVTILCDKFSGHPKGFAYIEFSDKESVRTSLALDESLFRGRQIKVIPKRTNRPGISTTDRGFPRARYRARTTNYNSSRSRFYSGFNSRPRGRVYRGRARATSWYSPY
B3: TRMT61A (protein, UniProt Q96FX7 2-289, looked up)
tRNA …: SFVAYEELIKEGDTAILSLGHGAMVAVRVQRGAQTQTRHGVLRHSVDLIGRPFGSKVTCGRGGWVYVLHPTPELWTLNLPHRTQILYSTDIALITMMLELRPGSVVCESGTGSGSVSHAIIRTIAPTGHLHTVEFHQQRAEKAREEFQEHRVGRWVTVRTQDVCRSGFGVSHVADAVFLDIPSPWEAVGHAWDALKVEGGRFCSFSPCIEQVQRTCQALAARGFSELSTLEVLPQVYNVRTVSLPPPDLGTGTDGPAGSDTSPFRSGTPMKEAVGHTGYLTFATKTPG
B4: UBAP2 (protein, UniProt Q5T6F2 1-1119, looked up)
Ubiquitin-associated protein 2: MMTSVSSDHCRGAREKPQISAAQSTQPQKQVVQATAEQMRLAQVIFDKNDSDFEAKVKQLMEVTGKNQDECIVALHDCNGDVNKAINILLEGNSDTTSWETVGCKKKNFAKENSENKENREKKSEKESSRGRGNNNRKGRGGNRGREFRGEENGIDCNQVDKPSDRGKRARGRGFGRGRGRGAGRFSTQGMGTFNPADYSDSTSTDVCGTKLVVWEAAQNGADEGTELASNTHNIAQDLSNKSSYGLKGAWKNSVEEWTTEDWTEDLSETKVFTASSAPAENHILPGQSIDLVALLQKPVPHSQASEANSFETSQQQGFGQALVFTNSQHNNQMAPGTGSSTAVNSCSPQSLSSVLGSGFGELAPPKMANITSSQILDQLKAPSLGQFTTTPSTQQNSTSHPTTTTSWDLKPPTSQSSVLSHLDFKSQPEPSPVLSQLSQRQQHQSQAVTVPPPGLESFPSQAKLRESTPGDSPSTVNKLLQLPSTTIENISVSVHQPQPKHIKLAKRRIPPASKIPASAVEMPGSADVTGLNVQFGALEFGSEPSLSEFGSAPSSENSNQIPISLYSKSLSEPLNTSLSMTSAVQNSTYTTSVITSCSLTSSSLNSASPVAMSSSYDQSSVHNRIPYQSPVSSSESAPGTIMNGHGGGRSQQTLDTPKTTGPPSALPSVSSLPSTTSCTALLPSTSQHTGDLTSSPLSQLSSSLSSHQSSLSAHAALSSSTSHTHASVESASSHQSSATFSTAATSVSSSASSGASLSSSMNTANSLCLGGTPASASSSSSRAAPLVTSGKAPPNLPQGVPPLLHNQYLVGPGGLLPAYPIYGYDELQMLQSRLPVDYYGIPFAAPTALASRDGSLANNPYPGDVTKFGRGDSASPAPATTPAQPQQSQSQTHHTAQQPFVNPALPPGYSYTGLPYYTGMPSAFQYGPTMFVPPASAKQHGVNLSTPTPPFQQASGYGQHGYSTGYDDLTQGTAAGDYSKGGYAGSSQAPNKSAGSGPGKGVSVSSSTTGLPDMTGSVYNKTQTFDKQGFHAGTPPPFSLPSVLGSTGPLASGAAPGYAPPPFLHILPAHQQPHSQLLHHHLPQDAQSGSGQRSQPSSLQPKSQASKPAYGNSPYWTN
B5: MINA (protein, UniProt Q8IUF8 1-465, looked up)
Ribosomal oxygenase 2: MPKKAKPTGSGKEEGPAPCKQMKLEAAGGPSALNFDSPSSLFESLISPIKTETFFKEFWEQKPLLIQRDDPALATYYGSLFKLTDLKSLCSRGMYYGRDVNVCRCVNGKKKVLNKDGKAHFLQLRKDFDQKRATIQFHQPQRFKDELWRIQEKLECYFGSLVGSNVYITPAGSQGLPPHYDDVEVFILQLEGEKHWRLYHPTVPLAREYSVEAEERIGRPVHEFMLKPGDLLYFPRGTIHQADTPAGLAHSTHVTISTYQNNSWGDFLLDTISGLVFDTAKEDVELRTGIPRQLLLQVESTTVATRRLSGFLRTLADRLEGTKELLSSDMKKDFIMHRLPPYSAGDGAELSTPGGKLPRLDSVVRLQFKDHIVLTVLPDQDQSDEAQEKMVYIYHSLKNSRETHMMGNEEETEFHGLRFPLSHLDALKQIWNSPAISVKDLKLTTDEEKESLVLSLWTECLIQVV

Columns and labels:
3×MBT domain of L3MBTL1 = experiment: Triple SILAC pull-down, 3xMBT/3xMBTD355N ratio (cytoplasmic, nuclear and chromatin fractions of 293T cells); assay type: binding, human; conditions: SILAC ratio, pull-down 3xMBT vs 3xMBTD355N; for 3xMBT/D355N UNC Heavy: experiment with UNC0638 in heavy SILAC media; for 3xMBT/D355N UNC Light: experiment with UNC0638 in light SILAC media;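 for all read-outs here: proteins quantified with MaxQuant, requiring at least two unique peptides and quantification in both label directions, normalized to the mean of proteins from a digested loading control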
G9a and GLP = biological target: T1, G9a and GLP (Homo sapiens, UniProt Q96KQ7+Q9H9B1); experiment: Triple SILAC pull-down after UNC0638 treatment of 293T cells, DMSO/UNC0638 ratio of protein captured by 3×MBT; assay type: cell-based; parameters: cells were treated for 24 hours with UNC0638 at 2.5 μM or DMSO vehicle control; endogenous in cells; host or cells: HEK 293T; conditions: for Relative to UNC0638 UNC Heavy / Relative to UNC0638 UNC Light: SILAC ratio DMSO/UNC0638 of protein pulled down with 3xMBT; for Relative to UNC0638 UNC Heavy: UNC0638 in heavy SILAC media; for Relative to UNC0638 UNC Light: UNC0638 in light SILAC media; for Relative to UNC0638 Average: average of UNC Light and UNC Heavy experiments;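 for all read-outs here: mass spectrometry (Q-Exactive) SILAC quantitation, DMSO/UNC0638 ratio computed after subtracting 3×MBTD355N mutant pull-down background, only proteins with at least twofold 3×MBT over mutant signal considered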
T1 sequence (Q96KQ7 2-1210 limits assumed): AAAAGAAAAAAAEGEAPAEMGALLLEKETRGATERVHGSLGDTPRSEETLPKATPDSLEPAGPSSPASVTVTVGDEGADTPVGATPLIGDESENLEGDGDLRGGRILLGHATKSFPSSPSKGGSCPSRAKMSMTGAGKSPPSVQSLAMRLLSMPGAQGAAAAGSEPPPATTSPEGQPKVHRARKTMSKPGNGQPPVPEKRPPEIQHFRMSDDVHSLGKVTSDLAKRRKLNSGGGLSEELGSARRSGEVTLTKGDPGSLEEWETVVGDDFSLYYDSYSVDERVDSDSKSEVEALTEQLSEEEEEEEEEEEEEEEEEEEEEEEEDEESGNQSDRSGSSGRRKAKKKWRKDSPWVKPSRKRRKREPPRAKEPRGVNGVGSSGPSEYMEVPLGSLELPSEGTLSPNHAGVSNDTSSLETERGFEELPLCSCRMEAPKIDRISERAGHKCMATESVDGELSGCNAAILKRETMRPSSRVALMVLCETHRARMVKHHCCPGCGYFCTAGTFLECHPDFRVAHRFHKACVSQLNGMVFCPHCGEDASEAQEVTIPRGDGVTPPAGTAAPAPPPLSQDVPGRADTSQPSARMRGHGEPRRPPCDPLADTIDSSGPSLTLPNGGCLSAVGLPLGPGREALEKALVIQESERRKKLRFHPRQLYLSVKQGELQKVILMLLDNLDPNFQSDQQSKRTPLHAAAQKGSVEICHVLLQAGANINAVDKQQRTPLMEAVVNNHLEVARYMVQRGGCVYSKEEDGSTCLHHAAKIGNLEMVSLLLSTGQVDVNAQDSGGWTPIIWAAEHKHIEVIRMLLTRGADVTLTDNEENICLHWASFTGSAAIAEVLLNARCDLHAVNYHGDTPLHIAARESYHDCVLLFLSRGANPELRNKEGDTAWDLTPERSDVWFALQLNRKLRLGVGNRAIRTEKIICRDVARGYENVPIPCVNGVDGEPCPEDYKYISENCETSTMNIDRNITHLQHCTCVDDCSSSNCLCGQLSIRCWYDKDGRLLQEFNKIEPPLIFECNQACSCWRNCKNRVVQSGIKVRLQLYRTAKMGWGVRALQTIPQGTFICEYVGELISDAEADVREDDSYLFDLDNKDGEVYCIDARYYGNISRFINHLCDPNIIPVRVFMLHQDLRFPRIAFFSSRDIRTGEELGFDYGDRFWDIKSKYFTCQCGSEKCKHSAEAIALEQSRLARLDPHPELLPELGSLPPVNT
T1 sequence (Q9H9B1 2-1298 limits assumed): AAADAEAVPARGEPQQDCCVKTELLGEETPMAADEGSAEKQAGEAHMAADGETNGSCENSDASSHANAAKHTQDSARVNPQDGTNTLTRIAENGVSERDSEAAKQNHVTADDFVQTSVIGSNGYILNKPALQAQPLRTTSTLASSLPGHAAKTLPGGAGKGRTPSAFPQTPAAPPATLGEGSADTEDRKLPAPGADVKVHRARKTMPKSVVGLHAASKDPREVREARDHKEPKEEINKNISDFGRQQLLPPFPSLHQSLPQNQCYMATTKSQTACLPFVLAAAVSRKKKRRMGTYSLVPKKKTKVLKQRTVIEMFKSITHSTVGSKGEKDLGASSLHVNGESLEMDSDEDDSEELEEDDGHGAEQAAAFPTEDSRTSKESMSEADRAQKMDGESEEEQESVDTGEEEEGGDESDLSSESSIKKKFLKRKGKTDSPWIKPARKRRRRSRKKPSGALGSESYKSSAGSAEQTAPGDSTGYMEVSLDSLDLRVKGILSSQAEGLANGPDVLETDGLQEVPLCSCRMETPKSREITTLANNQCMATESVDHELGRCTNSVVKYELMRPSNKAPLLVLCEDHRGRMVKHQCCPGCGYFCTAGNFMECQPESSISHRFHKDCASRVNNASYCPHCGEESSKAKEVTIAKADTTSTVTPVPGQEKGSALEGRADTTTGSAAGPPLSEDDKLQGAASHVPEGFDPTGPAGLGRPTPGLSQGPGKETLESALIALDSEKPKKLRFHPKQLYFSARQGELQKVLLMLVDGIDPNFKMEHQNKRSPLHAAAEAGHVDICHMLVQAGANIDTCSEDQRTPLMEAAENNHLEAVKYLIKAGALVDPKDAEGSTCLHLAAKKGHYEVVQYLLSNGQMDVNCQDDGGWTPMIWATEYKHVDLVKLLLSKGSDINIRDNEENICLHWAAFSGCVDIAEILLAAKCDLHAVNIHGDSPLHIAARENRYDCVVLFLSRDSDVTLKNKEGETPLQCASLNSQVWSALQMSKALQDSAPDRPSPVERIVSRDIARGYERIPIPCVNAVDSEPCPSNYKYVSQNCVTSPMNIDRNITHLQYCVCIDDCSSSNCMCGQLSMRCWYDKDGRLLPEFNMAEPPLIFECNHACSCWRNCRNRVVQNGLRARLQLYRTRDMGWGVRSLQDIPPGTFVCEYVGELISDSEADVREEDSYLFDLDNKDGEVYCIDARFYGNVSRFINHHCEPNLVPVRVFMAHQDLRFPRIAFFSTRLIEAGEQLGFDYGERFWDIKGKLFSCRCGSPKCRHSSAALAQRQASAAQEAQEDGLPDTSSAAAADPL

Molecule	3xMBT/D355N UNC Heavy (3×MBT domain of L3MBTL1) [log base 2]	3xMBT/D355N UNC Light (3×MBT domain of L3MBTL1) [log base 2]	Relative to UNC0638 UNC Heavy (G9a and GLP) [log base 2]	Relative to UNC0638 UNC Light (G9a and GLP) [log base 2]	Relative to UNC0638 Average (G9a and GLP) [log base 2]
B1	3.22	2.54	−0.07	0.33	0.13
B2	3.77	4.04	0.21	0.04	0.13
B3	2.78	3.82	−0.07	0.29	0.11
B4	2.90	1.92	0.20	0.04	0.12
B5	2.27	2.12	0.34	−0.08	0.13
